# Like-named read-outs stand apart in the source and are kept apart here.
# B1: L27V, K43R, Y68D: 9B8 opt+K33N+L27V+K43R+Y68D (protein)
# chain: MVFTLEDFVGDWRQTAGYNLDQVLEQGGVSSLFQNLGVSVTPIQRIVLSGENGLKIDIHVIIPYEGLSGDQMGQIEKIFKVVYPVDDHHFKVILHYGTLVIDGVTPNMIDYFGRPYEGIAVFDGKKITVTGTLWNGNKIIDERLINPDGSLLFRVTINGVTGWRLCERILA
# Key:
# HEK293 cells [1] = details: human, 24 h
# HEK293 cells [2] = test: Toxicity of coelenterazines in HEK293 cells (CELLTITER-GLO); details: 24 hrs after compound addition
# [3] = Stability of coelenterazines in reporter reagent buffer (T90); details: time for luminescent signal to decay by 10% at 22° C.; read with OgLuc variant IV lysate
# L27V02 enzyme = molecular target: T1, L27V02 enzyme (Oplophorus gracilirostris, UniProt Q9GV45, A31E/A60N/A81I/F95D/I117V/K70R/L54V/L99Q/M102K/N193R/P142E/Q151K/Q38R/Q45L/V71I/Y165I); test: Luminescence of compounds with purified L27V02 enzyme; assay type: biochemical; details: 20 μM compound, 36 pM L27V02, pH 7, 3 min
# T1 construct: The N-terminus of the OgLuc variant L27V is methionine, valine and phenylalanine, i.e., MVF; made in house
# Experimental: Compounds PBI-4525, PBI-4540 and PBI-4541 were screened for their ability to detect luminescence. […] The assay reagent was then mixed with 36 pM purified L27V02 enzyme (described in Example 25B), in DMEM without Phenol Red and 0.1% PRIONEX®. As a control, assay buffer with 20 μM PBI-3939 or PBI-4528 was used. Luminescence was measured as previously described 3 min after the assay reagent was added to the enzyme mixture.
# [4] = Brightness and relative specificity of 9B8 and 9B8 opt+K33N variants in E. coli lysates; assay type: biochemical
# Experimental: Additional variants with improved relative specificity to novel PBI-3939 were generated as described previously by saturating amino acid positions 18, 68, 72, 75, and 90 in variant 9B8. […] Relative specificity was determined from the ratio of the luminescence of the variant with PBI-3939 to the luminescence of the variant with native coelenterazine, normalized to the ratio of corresponding luminescence of 9B8. Table 8 lists 9B8 variants (“Variant”) with at least 1.1× fold-increase in relative specificity for PBI-3939. […] 9B8 variants with amino acid substitutions K, D, F, G, Y, W, and H at position 18 had the highest fold improvement in relative specificity.
# A new OgLuc library was created using 9B8opt+K33N as a starting template. The random library was created using DIVERSIFY® PCR Random Mutagenesis Kit (ClonTech; Catalog #630703). Condition 5 (as listed in the user manual) was used to generate additional variants, and the average mutation rate was calculated to be 2.6 mutations per gene by compiling sequence data from 83 randomly selected clones. This PCR library was cloned into the pF4Ag-based, non-fusion vector background described previously and the sandwich background, i.e., Id-OgLuc-HT7 (described in Example 45). Variants in the pF4Ag-base non-fusion vector background are designated with (NF). Variants in the sandwich vector background are designated with (F). In order to clone the PCR product into both vectors, an amino acid, i.e., a glycine, was appended to the variant sequence in pF4Ag, generating a new position 170 in the OgLuc variant (“170G”). The 170G is present in the sandwich construct, but in this case is considered part of the linker between OgLuc and HT7. For each library, 4,400 E. coli clones were assayed as described previously with the following exceptions. […] The assay buffer contained 100 mM MES pH 6.0 instead of HEPES, and 35 mM thiourea. The assay volumes were as follows: 10 μL cells, 40 μL lysis buffer, and 50 μL assay buffer.
# (§1) Based on the above data, further combination variants were designed and generated (see Table 10) in the context of the pF4Ag-based non-fusion vector background without the 170G. The variants were analyzed in E. coli, HEK293 and NIH3T3 cells as described above and compared to 9B8 opt+K33N. The variants were also examined for luminescence with native coelenterazine.
# E. coli lysates containing the variants were prepared and analyzed as described previously. Luminescence generated from the lysates was measured using the novel PBI-3939 and native coelenterazine as substrates. The luminescence of the variants was normalized to the luminescence generated by 9B8 opt (Table 12). The relative specificity of the variants for PBI-3939 and native coelenterazine was calculated by dividing the luminescence of the variants using PBI-3939 as a substrate with the luminescence of the variants using native coelenterazine as a substrate (Table 12).
# [5] = Luminescence of OgLuc variants expressed in HEK293 cells; assay type: cell-based, human
# Experimental: (§2) The PCR library in the pF4Ag-based non-fusion background was screened for additional variants with increased luminescence compared to 9B8 opt+K33N+170G (SEQ ID NOs: 68 and 69). Selected variants were then assayed in HEK293 and NIH3T3 cells. For each cell type, 15,000 cells were plated and grown overnight at 37° C. The next day, the cells were transfected as described in Example 25 with 10 ng pGL4.13 (Promega Corp.) as a transfection control and 100 ng of the OgLuc test DNA. The media was removed, and the cells were lysed with 100 μL of lysis buffer as described in Example 25 except the lysis buffer contained 100 mM MES pH 6.0 instead of HEPES, and luminescence measured using a GLOMAX® Luminometer.
# as §1
# (§3) The brightness of the variants expressed in HEK293 and NIH3T3 cells was measured as described previously. The luminescence of the variants was normalized to the luminescence generated by 9B8 opt (Table 27).
# (§4) The variants 9B8 opt+K33N+T39T+K43R+Y68D (“V2”; SEQ ID NOs: 92 and 93), 9B8 opt+K33N+L27V+K43R+Y68D (SEQ ID NOs: 339 and 340), 9B8 opt+K33N+L27V+T39T+K43R+S66N (SEQ ID NOs: 341 and 342), and 9B8 opt+K33N+L27V+T39T+K43R+Y68D (“L27V”; SEQ ID NOs: 88 and 89) were subcloned into the Id-OgLuc-HT7 sandwich background as described above and assayed in HEK293 and NIH3T3 cells as described above. The luminescence generated by the sandwiched variants were compared to the luminescence generated by the […] sandwich (SEQ ID NOs: 59 and 60) (Table 38). The L27V sandwich (SEQ ID NOs: 90 and 91) and V2 sandwich (SEQ ID NOs: 94 and 95) had at least 1.3× fold-increase in luminescence in HEK293 and NIH3T3 cells.
# (§5) The sandwich and non-sandwich versions of the variants V2, 9B8 opt+K33N+L27V+K43R+Y68D, 9B8 opt+K33N+L27V+T39T+K43R+S66N, and L27V were assayed in HEK293 and NIH3T3 cells as described in Example 37. The luminescence generated by the non-sandwiched variants was compared to the luminescence generated by the sandwiched variants (Table 39).
# [6] = assay type: biochemical, E. coli
# Experimental: The signal stability of 15C1 with PBI-3945 and 9B8 with PBI-3889 was measured and compared to IV. E. coli containing plasmid DNA encoding 15C1, 9B8, or IV were grown and induced as described previously in 8-well replicates. Cells were lysed using a lysis buffer containing of 300 mM HEPES pH 8.0, 0.3× Passive Lysis Buffer (“PLB”; Promega Corp. Cat. No. E194A), 0.3 mg/mL lysozyme, and 0.003 U/μL RQ1 DNase. Lysates were diluted 1:1000 in lysis buffer and measured for luminescence using a TECAN® INFINITE® F500 luminometer. Measurements were taken immediately after the addition to 10 μL of diluted lysate sample of 50 μL of “Glo” 0.5% TERGITOL assay buffer (“0.5% TERGITOL”), which contained 150 mM KCl, 1 mM CDTA, 10 mM DTT, 100 mM thiourea, 0.5% TERGITOL® NP-9 (v/v), and 20 μM of either novel coelenterazines PBI-3945 or PBI 3889.
# The signal stability of the variants was determined by re-reading the plate every 30 seconds for a length of time after the addition of the assay buffer to the sample. The signal half-life was determined from these measurements using methods known in the art. The average signal half-life was compared between the variants and IV. […] At t=10 min, luminescence for 15C1 with PBI-3945 and 9B8 with PBI-3889 were equivalent.
# E. coli lysates containing the variants were prepared and analyzed as described previously except the assay buffer contained 0.25% TERGITOL® NP-9 (v/v), 100 mM MES pH 6.0, 1 mM CDTA, 150 mM KCl, 35 mM thiourea, 2 mM DTT, and 20 μM PBI-3939.
# [7] = Enzyme kinetics of OgLuc variants (Km, Vmax); assay type: biochemical, E. coli; details: PBI-3939, average of three replicates
# Experimental: Using methods known in the art, enzyme kinetic assays measuring luminescence were performed with the lysates of E. coli containing N and the IV variants 15C1, 9B8, 9F6, and 9A3. […] Two fold serial dilutions of PBI-3939 in the assay buffer described previously in Example 26 were assayed with the diluted lysates. […] Variants 9B8 and 9F6 had higher Km values compared to IV while Km values for the other variants were unchanged.
# Luminescence was measured on a TECAN® INFINITE® F500 luminometer.
# The enzyme kinetics values were determined for the OgLuc variants as described previously, except luminescence was measured using a GLOMAX® luminometer. Three replicates were used for each variant.
# [8] = Luminescence of OgLuc variants expressed in NIH3T3 cells; assay type: cell-based
# Experimental: as §2, §1, §3, §4, §5
# [9] = assay type: physicochemical, E. coli; details: 60° C., assay buffer 100 mM MES pH 6.0
# Experimental: Aliquots were removed at different time-points and placed on dry ice to freeze the samples. […] Luminescence was measured on a GLOMAX® luminometer (Promega Corp.).
# The thermal stability of the variants at 60° C. was examined as described above, except the assay buffer contained 100 mM MES pH 6.0 instead of HEPES.
# [10] = relative specificity for PBI-3939
molecule,measurement,setting,value
"O=c1c(Cc2cccs2)nc2c(Cc3ccccc3)[nH]c(-c3ccccc3)cn1-2 [PBI-3889, 8-benzyl-6-phenyl-2-(thiophen-2-ylmethyl)imidazo[1,2-a]pyrazin-3(7H)-one]",Viability (normalized to vehicle (DMSO) control) (%),HEK293 cells [1],90%
same,Stability (pH 8) (T90 in hrs),,2.9 hrs
O=c1c(Cc2ccco2)nc2c(Cc3ccccc3)[nH]c(-c3ccc(O)cc3)cn1-2 [PBI-3945],Viability (normalized to vehicle (DMSO) control) (%),HEK293 cells [2],100%
same,Stability (pH 8) (T90 in hrs),[3],3.3 hrs
O=c1c(Cc2cccs2)nc2c(Cc3ccccc3)[nH]c(-c3ccc(O)cc3)cn1-2 [PBI-4002],Viability (normalized to vehicle (DMSO) control) (%),HEK293 cells [2],100%
same,Stability (pH 8) (T90 in hrs),[3],3.5 hrs
"Cn1ccnc1Cc1nc2c(Cc3ccccc3)[nH]c(-c3ccccc3)cn-2c1=O [PBI-4525, 8-benzyl-2-((1-methyl-1H-imidazol-2-yl)methyl)-6-phenylimidazo[1,2-a]pyrazin-3(7H)-one]",RLU,L27V02 enzyme,"20,655 RLU"
"Cn1ccnc1CC1=NC2=C(Cc3ccccc3)NC(c3ccccc3)(c3ccc(O)cc3)CN2C1=O (stereo not shown) [PBI-4540, 8-benzyl-6-(4-hydroxyphenyl)-2-((1-methyl-1H-imidazol-2-yl)methyl)-6-phenylimidazo[1,2-a]pyrazin-3(7H)-one]",RLU,L27V02 enzyme,909 RLU
"O=c1c(Cc2ncc[nH]2)nc2c(Cc3ccccc3)[nH]c(-c3ccccc3)cn1-2 [PBI-4541, 2-((1H-imidazol-2-yl)methyl)-8-benzyl-6-phenylimidazo[1,2-a]pyrazin-3(7H)-one]",RLU,L27V02 enzyme,"5,676 RLU"
"O=c1c(Cc2ccccc2)nc2c(Cc3ccccc3)[nH]c(-c3ccccc3)cn1-2 [Coelenterazine hh, bis-deoxycoelenterazine, reference compound]",Viability (normalized to vehicle (DMSO) control) (%),HEK293 cells [2],87%
same,Stability (pH 8) (T90 in hrs),[3],2.0 hrs
"Oc1ccc(Cc2nc3c(Cc4ccccc4)nc(-c4ccc(O)cc4)cn3c2O)cc1 [Native coelenterazine, coelenterazine, reference compound]",Viability (normalized to vehicle (DMSO) control) (%),HEK293 cells [1],100%
same,Stability (pH 8) (T90 in hrs),,1.7 hrs
"Cc1[nH]c(-c2ccccc2)cn2c(=O)c(Cc3ccc(O)cc3)nc1-2 [PBI-3896, 2-(4-hydroxybenzyl)-8-methyl-6-phenylimidazo[1,2-a]pyrazin-3(7H)-one]",Stability (pH 8) (T90 in hrs),,2.8 hrs
B1,Fold over coelenterazine,"[4]; bacterial lysates, PBI-3939 luminescence divided by native coelenterazine luminescence",110
same,Fold over 9B8,"[4]; bacterial lysates, luminescence normalized to 9B8 opt",1.3
same,fold-increase in relative specificity over 9B8 opt+K33N,[4]; in the three cell types examined,5 ×
same,Fold over 9B8 opt + K33N: E. coli,"[4]; luminescence, PBI-3939",1.2
same,Fold over Native Coelenterazine: E. coli,[4]; [10],98.3
same,Fold-Decrease in Luminescence in the Presence of Sandwich Background: HEK 293,[5],8
same,Fold over 9B8 opt + K33N: HEK293,"[5]; luminescence, PBI-3939",0.9
same,Increase in Luminescence: HEK293,[5]; normalized to 9B8 opt,1.6
same,Fold over Native Coelenterazine: HEK293,[5]; [10],101
same,signal half life,[6],2.03 h
same,Km,[7],13.7 µM
same,Vmax,[7],"130,000,000 RLU/0.5 sec"
same,Fold-Decrease in Luminescence in the Presence of Sandwich Background: NIH 3T3 cells,[8],22
same,Fold over 9B8 opt + K33N: NIH3T3,"[8]; luminescence, PBI-3939",0.8
same,Increase in Luminescence: NIH3T3,[8]; normalized to 9B8 opt,1.5
same,Fold over Native Coelenterazine: NIH3T3,[8]; [10],98
same,½ life hours,[9],23.2 h

# — patent US8809529B2, “Imidazo[1,2-α]pyrazine derivatives” (Promega Corporation, priority 2010, dated 2014)
